Data set [1] deals with the molecule itself. Put plainly: size-exclusion chromatography, self-association (homodimer). On the procedure: FIG. 7. Size exclusion chromatography (SEC) traces of purified SP apo-proteins. Proteins were injected as 0.5 mL aliquots onto a Superdex™ 200 Increase 10/300 GL column (Cytiva Life Sciences). The narrow, isolated peaks indicate that the samples contain monodisperse protein. Running buffer was 150 mM NaCl, 10 mM Tris at pH 8. Proteins were purified by Ni-NTA and one round of SEC prior to collecting the data shown.
Proteins were purified by Ni-NTA and size-exclusion chromatography (SEC) (FIG. 7). […] A slightly lower predicted radius of gyration (Rg) value compared to experimental SAXS data is likely due to a dense hydration shell around the highly charged SP proteins (Svergun et al. 1998; Kim et al. 2016). The far ultraviolet (UV) circular dichroism (CD) spectra of three SP proteins that expressed in high yield (≥140 mg/L) show the proteins are highly α-helical with and without the synthetic Chl a derivative, Zn pheophorbide a methyl ester (ZnPPaM). Thermal denaturation curves monitored by the CD signal at 222 nm indicate that all three proteins are highly thermostable in the apo- and holo-states (FIG. 2).
A general note: SEC sorts molecules by how far they enter the pores of the column.

Data set [2] in a line: ZnPPaM fluorescence titration, 1:1 binding model. Particulars: 1:1 binding model of protein monomer to ZnPPaM, approximates average of KD1 and KD2, read-out: KD estimate. The text has this: (§1) At longer wavelengths in the UV/visible/near-infrared (UV/vis/NIR), CD spectra can serve as a convenient probe of excitonic interactions between Chls. […] When Chl dimers are arranged in chiral protein environments, however, excitonic interactions can produce delocalized transitions with chiral character, yielding CD signals that are stronger and conservative (i.e., composed of a bisignate doublet that integrates to zero). […] Curve fitting of the CD titrations yields SP2-ZnPPaM dissociation constants (KDs) of 300 nM for KD1 and 2.5 μM for KD2, and SP3-ZnPPaM KDs of 800 nM for KD1 and 1.0 μM for KD2 (data not shown). Due to the lower CD signal of the SP1-ZnPPaM complex, we instead used absorbance and fluorescence to measure the SP1-ZnPPaM interaction. Absorption titrations yielded curve fits with KD1 and KD2 values of 290 nM and 430 nM for SP1, 110 nM and 2.0 μM for SP2, and 350 nM and 940 nM for SP3, respectively (FIG. 9).

Data set [3] in a line: ZnPPaM binding titration monitored by CD in the Qy region. The settings on record: curve fitting.
Source text: as §1
Circular Dichroism (CD) spectroscopy: CD spectra were collected using a J-1500 spectrophotometer. For protein secondary structure assays, spectra were measured on samples of 0.2-0.4 mg/mL protein in 1 mm quartz cuvettes from 260 to 190 nm with a 1 nm bandwidth, 1 nm data interval, data integration time (DIT) of 1 second, and scanning speed of 50 nm/min. Thermal melts were monitored at 222 nm from 2 to 98° C. with a 2 nm bandwidth and 8 second DIT. UV/vis/near-infrared (NIR) CD transitions of protein-bound Chls were examined in the 800-300 nm region in 1 cm quartz cuvettes as averages of 10 scans using a 3 nm bandwidth, 1 nm data interval, DIT of 4 seconds, and scanning speed of 50 nm/min unless otherwise noted. UV/vis/NIR CD spectra shown in FIG. 2 were collected after sterile filtering with 0.22 μm filter and PD-10 desalting column purification (Sephadex™ G-25 M resin, Cytiva Life Sciences). Each spectrum represents the average of two independent sample preparations. Samples contained 8-15 μM protein (monomer concentration) with equimolar ZnPPaM, 150 mM NaCl, and 10 mM Tris buffer at pH 8. ZnPPaM dry powder was dissolved in methanol stock solutions immediately before adding to protein solutions. Samples were allowed to incubate for 8-16 hours at room temperature prior to measuring spectra.

The nature of data set [4]: ZnPPaM binding titration monitored by UV/vis absorbance. Particulars: absorption titration. On the procedure:
FIG. 9. SP2-ZnPPaM binding titration monitored by UV/vis absorbance. (a) UV/vis titration of ZnPPaM into a solution of 20 μM SP2 dimer ([…] of SP2 monomer) in 150 mM NaCl, and 10 mM Tris at pH 8. Samples were prepared separately with 0.25 to 4 equivalents (eq.) of ZnPPaM per SP2 protein dimer (2.0 eq. ZnPPaM would be a stoichiometric amount). The y-axis is the molar extinction coefficient, &, or OD divided by ZnPPaM concentration. ZnPPaM was added to protein samples from a DMSO stock solution. Samples were incubated overnight for 20 hours at 4° C. before measurement at room temperature. (b) The same data as in panel (a) zoomed in on the Qy region. Arrows indicate the direction & changes as a function of increasing ZnPPaM concentration. (c) Fitted spectra and (d) species concentration vs. molar ratio of ligand to protein from fitting of the absorbance spectra in panels (a) and (b). During fitting, only the P+L→PL and PL+L→PL2 reactions were considered, and ZnPPaM aggregation was disregarded. (P represents SP2 dimer protein and L represents ZnPPaM ligand). Curve fitting gives dissociation constants (KDs) of 110 nM and 2.0 μM for KD1 and KD2, respectively. Fittings were performed with an algorithm that combines singular value decomposition and least squares regression, as implemented in ReactLab™ Equilibria. (e) Full spectra and (f) the Qy region of a second titration with SP2 dimer protein concentration held at 2.0 μM. At 2.0 μM protein, the intensities of the spectral features at 669 and 692 nm depend upon the molar ratio of protein to ZnPPaM in a manner similar to the 20 μM protein titration shown in panels (a) and (b).
as §1
Protein-chlorophyll sample preparation: Zn pheophorbide a methyl ester (ZnPPaM) was purchased from Frontier Scientific, Inc. ZnPPaM stock solutions were prepared in dimethyl sulfoxide (DMSO) or methanol to concentrations between 200 μM and 1 mM. ZnPPaM concentrations were determined using mass measurements and by using the known absorptivity of Zn pheophytin a, which has a similar absorbance spectrum and an extinction coefficient €659 nm of 77,300 M^−1 cm^−1 in 80% acetone/20% deionized water (Jones et al. 1976). Ultraviolet/visible (UV/vis) absorbance spectra were collected using a V-750 spectrophotometer with a 1 nm bandwidth and 400 nm/min scanning speed. Protein-ZnPPaM complexes were prepared by slowly adding freshly-prepared ZnPPaM stock solution to protein solution in aqueous buffer at room temperature and incubating samples for several hours. Unbound ZnPPaM was removed by centrifugation to pellet precipitated ZnPPaM, sterile filtration using a 0.22 μm syringe filter, and/or running a PD-10 desalting column purification (Sephadex™ G-25 M resin, Cytiva Life Sciences).

Setting [5] is: P+L→PL, 150 mM NaCl, 10 mM Tris pH 8, read-out: dissociation constant KD1.

B1: JA (designed binder)
chain: SGSGSWEEEAADKAIEIAEKVFRLKKSGTSEDEIAEEVAREISEVIRTLKESGSSEEVIALALLMIILGVVMALIANGVSIREQLDISATILYEVAREQGNEEALEAIEEITRLAEEIKEEGGSILAAHILTMAGLLVAALPSEEAAEVAKEIAKAVKAAVEAEKDGKSDEAMLALIRLILAIMAALFNRSKYSLEMVRRIAKEAEQLAEDAREGK
notes: Designed homodimer subunit, after TEV cleavage
On to B1, for which, in data set [1], the binding result is given as “binds”.

B2: JC (designed binder)
chain: SGSTEKLKKVLERVRELAERAKESTSPEEALIIALLVSSLAIAAVMLDPSEEASTAVKIAIKIAEEVAKRVSDSQLSASIALSIASLALVAAEAAGDEELSKLALRLAKLAAELAKDALRIAEERGNAIDAAIAVGIVVMVAAILLQLAKLLGSEEALKEALEVAEEAARLAKRVLELAERVGDPQVALAAVGHVQMVAILLAQIARESGSEEAKERAERVARESMELAERVLELMRREGKW
notes: as for B1
As for B2, the binding result in data set [1] is reported as “binds”.

B3: JB (designed binder)
chain: SGSTEELKKVLEDVRELAERAKESTDPEEALIIAILVIIRALAAVALDPSEEASTAVKIAIKIAEEVAKRVSDSELSASIALLIANLALVAAKAAGDEELSKLALRLAKLAAELAKDALRIAEERGNAWQAAIAVGVVVMVATILLALAKQLGSEEALKEALEVAEEAARLAKRQLELAERVGDPIVALAAVGHVFMVAMLLAQIARESGSEEAKERAKRVAEEAEELAERVYELMRREGK
notes: as for B1
Take B3: the binding result in data set [1] is reported as “binds”.

B4: SP2: de novo designed chlorophyll special pair protein, C2 homodimer (protein)
chain: SGSGSSDEEFKFLATEAKMLITAAERLAGTDPELQEMVALIKKELEQAERTFRNGDKSEAQRQLEFVLTAARAVMNVAAAANAAGTDPELIEMVLRILKQLKEAIRTFQNGDQEEAETQLRFVLRAAIAVAVVAAALVLAGTDPELQEMVKQILEELKQAIETFARGDKEKALTQLLFVAWAAHAVAMIAAAANLAGTDPRLQQQVKEILEKLKEAIETFQKGDEEQAFRQLAEVLAEAALVALRAALTN
modifications: homodimer; VARIANT 1..6 optionally absent; VARIANT 33 optionally absent; VARIANT 89..100 optionally absent; VARIANT 111..115 optionally absent; VARIANT 151..169 optionally absent; VARIANT 197..199 optionally absent
notes: de novo designed chlorophyll special pair protein, C2 homodimer
On to B4, for which the Kd in data set [2] is 480 nM; in data set [3] (first ZnPPaM binding (data not shown), read-out: dissociation constant KD1) it was 300 nM; in data set [3] (second ZnPPaM binding (data not shown), read-out: dissociation constant KD2) it was 2500 nM; in data set [4] (setting [5]), 110 nM; in data set [4] (PL+L→PL2, 150 mM NaCl, 10 mM Tris pH 8, read-out: dissociation constant KD2), 2000 nM.

B5: JD (designed binder)
chain: SGSSDEEYARMSAELAEEAAKEALEQAKREGDEDARRVAEELEKQAEEARRKKDFDLANLVLMAAIILLLALIILELAKKAGNEQMEASGLSLLATAALLAAAGGENSEDARKALEAALRLAERATEVLEKIAKKGETALEKAIAAGTLVMLIQIIIQIAELLSKLGDTEEAKKVLDIAIELIKRVTEILERIAKKADTDILAQAAAGHLIYLIQLLMQISILLRRLGNIDEAFKVLEEARELAERVRELLERIAKNSDK
notes: as for B1
Turning to B5, the binding result in data set [1] is recorded as “binds”.

B6: JE (designed binder)
chain: SGSGSSDELAALFLIISAKSQAWQAQSAAERTGDPRVRELARELKRLAQEAAEEVKRDPSSSEVNKNLQLISMAIALAVLALQLARKAGDEEARDIAREAVEVAVRAAQLILEGRDEQRAQTLFLIAHALLMAVMAARLGNSEVAELAVKVLRLAKELEKLLPSEIALFVVLMIALAALSAAMAASGGQEDYARDALRRLEEAIREAEENRSKESLEKVIEEAIEAMLQANRAQTGG
notes: as for B1
For the molecule B6, the binding result in data set [1] is reported as “binds”.

B7: D_3_114_5 (designed binder)
chain: SGSGSSDFEFKMLATWAKMAITAAERAAGTDPELQEMVALIKKELEQAERTFRNGDKSEAMRQLEFVLTAANAVLAVALAANMAGTDPELQEMVDRILKQLKEAIRTFQNGDQEEAEDQLLFVLAAATAVAVVAWAKILAGTDPELQEMVKQILEELKQAIETWARGDKEKAATQLLFVMWAAHAVAAIALAANVAGTDPRLQQQVKEILEKLKEAIETFQKGDEEQAFRQLAEVLAEAMLVAIRALLTN
notes: as for B1
In the case of B7, in data set [1], the binding result was “binds”.

B8: SP1: de novo designed chlorophyll special pair protein, C2 homodimer (protein)
chain: GGDSRELIARYQILLAELAAIRADIAAERTGDPYVRKLARELKRLAQEAAEEVKRDPSSSDVNMALLLILLMIELAVRALEAAERTGDPEVRELAAELVWLAVEAAEEVQRNPSSSDVWLALHLIMLAIWAAVAALEAAERTGDPEVRELARELVRLAVEAAEEVQRNPSSKEVYMALLLILIAILEAVLSLLRAERSGDPEKREKARERVREAVERAEEVQR
modifications: homodimer; VARIANT 1..2 optionally absent
notes: as for B4
Take B8: the Kd is 660 nM in data set [2]; 290 nM in data set [4] (setting [5]); 430 nM in data set [4] (PL+L→PL2, read-out: dissociation constant KD2).

B9: D_3_114_4 (designed binder)
chain: SGSGSSDEEFKFLATMAKMAITAAERAAGTDPELQEMVALIKKELEQAERTFRNGDKSEAQRQLWFVWVAALAVAAVALAANAAGTDPELQEMVDRILKQLKEAIRTFQNGDQEEAETQLRFVLMAAAAVAVVALARLWAGTDPELQEMVKQILEELKQAIETFARGDKEKALTQLLFVLWAAHAVLWIAIAANLAGTDPRLQQQVKEILEKLKEAIETFQKGDEEQAFRQLAEVLAEAVLVALRARKTN
notes: as for B1
Take B9: the binding result in data set [1] is recorded as “binds”.

(Values after US20250326867A1, “De novo designed chlorophyll special pair proteins” (University of Washington, priority 2024, published 2025).)
